The results in this text go back to patent US20210115124A1 (Genentech, published 2021).

As a reminder, the Kd is the free concentration of one partner at which half of the binding sites on the other are occupied at equilibrium, for simple one-to-one binding. A lower Kd goes with tighter binding. The koff is the first-order rate constant of dissociation. Low values mean a long-lived complex, high ones a short-lived complex. Broadly, the kon is the rate constant with which the complex forms. High values mean fast association, low ones slow association.

This test has as its target T1, human VEGF (hVEGF) (human, UniProt P15692 181-395).
T1 construct: also called VEGF-A
T1 sequence: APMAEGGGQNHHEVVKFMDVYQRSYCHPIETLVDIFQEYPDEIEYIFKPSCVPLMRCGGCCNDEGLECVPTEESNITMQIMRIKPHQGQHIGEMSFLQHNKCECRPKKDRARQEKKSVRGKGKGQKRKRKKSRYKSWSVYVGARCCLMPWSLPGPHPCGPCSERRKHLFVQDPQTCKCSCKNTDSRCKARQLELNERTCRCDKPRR
Kind of test: SPR single-cycle.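 Further: fab variants injected over hVEGF immobilized on a CM5 chip (Biacore T200), threefold dilution series from 0.02 to 50 nM, kinetics fitted with a 1:1 Langmuir model.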

Source text: To determine the binding affinity of selected Fab variants, SPR measurement with a BIACORE® T200 instrument was used. Briefly, series S sensor chip CM5 was activated with 1-ethyl-3-(3-dimethylaminopropyl) carbodiimide (EDC) and N-hydroxysuccinimide (NHS) reagents according to the supplier's instructions, and human VEGF (hVEGF) was coupled to achieve 50-80 response units (RU), then following by blocking un-reacted groups with 1M ethanolamine.
Three-fold serial dilutions of Fab in HBS-P buffer (0.01 M HEPES pH 7.4, 0.15 M NaCl, 0.005% surfactant P20) from low (0.02 nM) to high (50 nM) were injected (flow rate: 30 μl/min). The binding responses on hVEGF were corrected by subtracting of RU from a blank flow cell. The sensorgram was recorded and subject to reference and buffer subtraction before evaluating by BIACORE® T200 Evaluation Software (version 2.0). Association rates (kₒₙ) and dissociation rates (koff) were calculated using a simple one-to-one Langmuir binding model. The equilibrium dissociation constant (Kd) was calculated as the ratio koff/kₒₙ.

B1: G6.31 HC-N76E (Fab, name in Kabat numbering, V domains shown)
VH: EVQLVESGGGLVQPGGSLRLSCAASGFTISDYWIHWVRQAPGKGLEWVAGITPAGGYTYYADSVKGRFTISADTSKETAYLQMNSLRAEDTAVYYCARFVFFLPYAMDYWGQGTLVTVSS
VL: DIQMTQSPSSLSASVGDRVTITCRASQDVSTAVAWYQQKPGKAPKLLIYSASFLYSGVPSRFSGSGSGTDFTLTISSLQPEDFATYYCQQGYGNPFTFGQGTKVEIK
notes: Fab
With B1, the “Fold change (relative to G6.31)” value was 1 fold, the Kd was found to be 1.72 nM, the koff came to 0.000467 s⁻¹ and the on-rate (kon) came out at 271000 M⁻¹ s⁻¹.

B2: G6.31 HC-S74E (Fab, name in Kabat numbering, V domains shown)
VH: EVQLVESGGGLVQPGGSLRLSCAASGFTISDYWIHWVRQAPGKGLEWVAGITPAGGYTYYADSVKGRFTISADTEKNTAYLQMNSLRAEDTAVYYCARFVFFLPYAMDYWGQGTLVTVSS
VL: DIQMTQSPSSLSASVGDRVTITCRASQDVSTAVAWYQQKPGKAPKLLIYSASFLYSGVPSRFSGSGSGTDFTLTISSLQPEDFATYYCQQGYGNPFTFGQGTKVEIK
notes: Fab
Turning to B2, the “Fold change (relative to G6.31)” value was 0.8 fold, binding was characterised by a dissociation constant (Kd) of 2.11 nM, the koff was 0.000499 s⁻¹ and the association rate constant (kon) is 236000 M⁻¹ s⁻¹.

B3: G6.31 HC-Q81E (Fab, name in Kabat numbering, V domains shown)
VH: EVQLVESGGGLVQPGGSLRLSCAASGFTISDYWIHWVRQAPGKGLEWVAGITPAGGYTYYADSVKGRFTISADTSKNTAYLEMNSLRAEDTAVYYCARFVFFLPYAMDYWGQGTLVTVSS
VL: DIQMTQSPSSLSASVGDRVTITCRASQDVSTAVAWYQQKPGKAPKLLIYSASFLYSGVPSRFSGSGSGTDFTLTISSLQPEDFATYYCQQGYGNPFTFGQGTKVEIK
notes: Fab
Consider B3, for which the “Fold change (relative to G6.31)” value turned out to be 0.8 fold, the Kd turned out to be 2.2 nM, the dissociation rate constant (koff) turned out to be 0.000495 s⁻¹ and the kon is 225000 M⁻¹ s⁻¹.

B4: G6.31 HC-P41R (Fab, name in Kabat numbering, V domains shown)
VH: EVQLVESGGGLVQPGGSLRLSCAASGFTISDYWIHWVRQARGKGLEWVAGITPAGGYTYYADSVKGRFTISADTSKNTAYLQMNSLRAEDTAVYYCARFVFFLPYAMDYWGQGTLVTVSS
VL: DIQMTQSPSSLSASVGDRVTITCRASQDVSTAVAWYQQKPGKAPKLLIYSASFLYSGVPSRFSGSGSGTDFTLTISSLQPEDFATYYCQQGYGNPFTFGQGTKVEIK
notes: Fab
Regarding B4, the “Fold change (relative to G6.31)” value stood at 1.8 fold, binding was put at a Kd of 0.97 nM, the koff came to 0.000554 s⁻¹ and the kon stood at 571000 M⁻¹ s⁻¹.

B5: G6.31 HC-S30E (Fab, name in Kabat numbering, V domains shown)
VH: EVQLVESGGGLVQPGGSLRLSCAASGFTIEDYWIHWVRQAPGKGLEWVAGITPAGGYTYYADSVKGRFTISADTSKNTAYLQMNSLRAEDTAVYYCARFVFFLPYAMDYWGQGTLVTVSS
VL: DIQMTQSPSSLSASVGDRVTITCRASQDVSTAVAWYQQKPGKAPKLLIYSASFLYSGVPSRFSGSGSGTDFTLTISSLQPEDFATYYCQQGYGNPFTFGQGTKVEIK
notes: Fab
Regarding B5, the “Fold change (relative to G6.31)” value stood at 0.2 fold; the affinity, expressed as Kd, was 7.1 nM; the off-rate constant (koff) is 0.000558 s⁻¹; the kon was found to be 78500 M⁻¹ s⁻¹.

B6: G6.31 HC-T68K (Fab, name in Kabat numbering, V domains shown)
VH: EVQLVESGGGLVQPGGSLRLSCAASGFTISDYWIHWVRQAPGKGLEWVAGITPAGGYTYYADSVKGRFKISADTSKNTAYLQMNSLRAEDTAVYYCARFVFFLPYAMDYWGQGTLVTVSS
VL: DIQMTQSPSSLSASVGDRVTITCRASQDVSTAVAWYQQKPGKAPKLLIYSASFLYSGVPSRFSGSGSGTDFTLTISSLQPEDFATYYCQQGYGNPFTFGQGTKVEIK
notes: Fab
Turning to B6, the “Fold change (relative to G6.31)” value is 1.3 fold, the Kd came to 1.29 nM, the koff was found to be 0.000513 s⁻¹ and the on-rate constant (kon) was 397000 M⁻¹ s⁻¹.

B7: G6.31 HC-T28E (Fab, name in Kabat numbering, V domains shown)
VH: EVQLVESGGGLVQPGGSLRLSCAASGFEISDYWIHWVRQAPGKGLEWVAGITPAGGYTYYADSVKGRFTISADTSKNTAYLQMNSLRAEDTAVYYCARFVFFLPYAMDYWGQGTLVTVSS
VL: DIQMTQSPSSLSASVGDRVTITCRASQDVSTAVAWYQQKPGKAPKLLIYSASFLYSGVPSRFSGSGSGTDFTLTISSLQPEDFATYYCQQGYGNPFTFGQGTKVEIK
notes: Fab
Take B7: the “Fold change (relative to G6.31)” value was determined as 3 fold, the Kd is 0.566 nM, the dissociation rate constant (koff) worked out at 0.000352 s⁻¹ and the kon came out at 621000 M⁻¹ s⁻¹.

B8: G6.31 HC-T73E (Fab, name in Kabat numbering, V domains shown)
VH: EVQLVESGGGLVQPGGSLRLSCAASGFTISDYWIHWVRQAPGKGLEWVAGITPAGGYTYYADSVKGRFTISADESKNTAYLQMNSLRAEDTAVYYCARFVFFLPYAMDYWGQGTLVTVSS
VL: DIQMTQSPSSLSASVGDRVTITCRASQDVSTAVAWYQQKPGKAPKLLIYSASFLYSGVPSRFSGSGSGTDFTLTISSLQPEDFATYYCQQGYGNPFTFGQGTKVEIK
notes: Fab
Consider B8, for which the “Fold change (relative to G6.31)” value was 2.2 fold, the dissociation constant Kd turned out to be 0.788 nM, the koff stood at 0.000434 s⁻¹ and the on-rate (kon) was found to be 550000 M⁻¹ s⁻¹.

B9: G6.31 HC-T28K (Fab, name in Kabat numbering, V domains shown)
VH: EVQLVESGGGLVQPGGSLRLSCAASGFKISDYWIHWVRQAPGKGLEWVAGITPAGGYTYYADSVKGRFTISADTSKNTAYLQMNSLRAEDTAVYYCARFVFFLPYAMDYWGQGTLVTVSS
VL: DIQMTQSPSSLSASVGDRVTITCRASQDVSTAVAWYQQKPGKAPKLLIYSASFLYSGVPSRFSGSGSGTDFTLTISSLQPEDFATYYCQQGYGNPFTFGQGTKVEIK
notes: Fab
For B9, the “Fold change (relative to G6.31)” value was 4 fold, binding was put at a Kd of 0.42 nM, the off-rate constant (koff) came out at 0.00041 s⁻¹ and the kon was 975000 M⁻¹ s⁻¹.

B10: G6.31 HC-Y58E (Fab, name in Kabat numbering, V domains shown)
VH: EVQLVESGGGLVQPGGSLRLSCAASGFTISDYWIHWVRQAPGKGLEWVAGITPAGGYTEYADSVKGRFTISADTSKNTAYLQMNSLRAEDTAVYYCARFVFFLPYAMDYWGQGTLVTVSS
VL: DIQMTQSPSSLSASVGDRVTITCRASQDVSTAVAWYQQKPGKAPKLLIYSASFLYSGVPSRFSGSGSGTDFTLTISSLQPEDFATYYCQQGYGNPFTFGQGTKVEIK
notes: Fab
As for B10, the “Fold change (relative to G6.31)” value worked out at 2.7 fold; the affinity, expressed as Kd, was 0.62 nM; the koff stood at 0.000508 s⁻¹; the kon came to 820000 M⁻¹ s⁻¹.

B11: G6.31 HC-T77E (Fab, name in Kabat numbering, V domains shown)
VH: EVQLVESGGGLVQPGGSLRLSCAASGFTISDYWIHWVRQAPGKGLEWVAGITPAGGYTYYADSVKGRFTISADTSKNEAYLQMNSLRAEDTAVYYCARFVFFLPYAMDYWGQGTLVTVSS
VL: DIQMTQSPSSLSASVGDRVTITCRASQDVSTAVAWYQQKPGKAPKLLIYSASFLYSGVPSRFSGSGSGTDFTLTISSLQPEDFATYYCQQGYGNPFTFGQGTKVEIK
notes: Fab
Consider B11, for which the “Fold change (relative to G6.31)” value turned out to be 0.9 fold; the affinity, expressed as Kd, was 1.93 nM; the koff stood at 0.000477 s⁻¹; the association rate constant (kon) came to 248000 M⁻¹ s⁻¹.

B12: G6.31 HC-Y56K (Fab, name in Kabat numbering, V domains shown)
VH: EVQLVESGGGLVQPGGSLRLSCAASGFTISDYWIHWVRQAPGKGLEWVAGITPAGGKTYYADSVKGRFTISADTSKNTAYLQMNSLRAEDTAVYYCARFVFFLPYAMDYWGQGTLVTVSS
VL: DIQMTQSPSSLSASVGDRVTITCRASQDVSTAVAWYQQKPGKAPKLLIYSASFLYSGVPSRFSGSGSGTDFTLTISSLQPEDFATYYCQQGYGNPFTFGQGTKVEIK
notes: Fab
B12: the “Fold change (relative to G6.31)” value came out at 1.8 fold, binding was put at a Kd of 0.965 nM, the koff turned out to be 0.000699 s⁻¹ and the kon came out at 724000 M⁻¹ s⁻¹.

B13: G6.31 HC-T77K (Fab, name in Kabat numbering, V domains shown)
VH: EVQLVESGGGLVQPGGSLRLSCAASGFTISDYWIHWVRQAPGKGLEWVAGITPAGGYTYYADSVKGRFTISADTSKNKAYLQMNSLRAEDTAVYYCARFVFFLPYAMDYWGQGTLVTVSS
VL: DIQMTQSPSSLSASVGDRVTITCRASQDVSTAVAWYQQKPGKAPKLLIYSASFLYSGVPSRFSGSGSGTDFTLTISSLQPEDFATYYCQQGYGNPFTFGQGTKVEIK
notes: Fab
In the case of B13, the “Fold change (relative to G6.31)” value was found to be 7.7 fold, binding was put at a Kd of 0.222 nM, the koff was 0.00045 s⁻¹ and the kon came out at 2.03e+06 M⁻¹ s⁻¹.

B14: G6.31 HC-T68E (Fab, name in Kabat numbering, V domains shown)
VH: EVQLVESGGGLVQPGGSLRLSCAASGFTISDYWIHWVRQAPGKGLEWVAGITPAGGYTYYADSVKGRFEISADTSKNTAYLQMNSLRAEDTAVYYCARFVFFLPYAMDYWGQGTLVTVSS
VL: DIQMTQSPSSLSASVGDRVTITCRASQDVSTAVAWYQQKPGKAPKLLIYSASFLYSGVPSRFSGSGSGTDFTLTISSLQPEDFATYYCQQGYGNPFTFGQGTKVEIK
notes: Fab
For the molecule B14, the “Fold change (relative to G6.31)” value stood at 0.8 fold, the Kd is 2.05 nM, the dissociation rate constant (koff) worked out at 0.00044 s⁻¹ and the kon is 215000 M⁻¹ s⁻¹.

B15: G6.31 HC-P41E (Fab, name in Kabat numbering, V domains shown)
VH: EVQLVESGGGLVQPGGSLRLSCAASGFTISDYWIHWVRQAEGKGLEWVAGITPAGGYTYYADSVKGRFTISADTSKNTAYLQMNSLRAEDTAVYYCARFVFFLPYAMDYWGQGTLVTVSS
VL: DIQMTQSPSSLSASVGDRVTITCRASQDVSTAVAWYQQKPGKAPKLLIYSASFLYSGVPSRFSGSGSGTDFTLTISSLQPEDFATYYCQQGYGNPFTFGQGTKVEIK
notes: Fab
B15: the “Fold change (relative to G6.31)” value turned out to be 0.5 fold; the affinity, expressed as Kd, was 3.6 nM; the koff turned out to be 0.000548 s⁻¹; the kon stood at 152000 M⁻¹ s⁻¹.

B16: G6.31 HC-S82bE (Fab, name in Kabat numbering, V domains shown)
VH: EVQLVESGGGLVQPGGSLRLSCAASGFTISDYWIHWVRQAPGKGLEWVAGITPAGGYTYYADSVKGRFTISADTSKNTAYLQMNELRAEDTAVYYCARFVFFLPYAMDYWGQGTLVTVSS
VL: DIQMTQSPSSLSASVGDRVTITCRASQDVSTAVAWYQQKPGKAPKLLIYSASFLYSGVPSRFSGSGSGTDFTLTISSLQPEDFATYYCQQGYGNPFTFGQGTKVEIK
notes: Fab
On to B16, for which the “Fold change (relative to G6.31)” value came out at 1.7 fold, the Kd is 0.991 nM, the koff came out at 0.000433 s⁻¹ and the on-rate constant (kon) stood at 437000 M⁻¹ s⁻¹.
